According to the supplement of paper PMC7877785:
± gives the uncertainty stated by the source.

Test: self-splicing fitness, log relative to wild type (ln ratio); higher = more splicing; Tetrahymena group I intron in knt gene, E. coli kanamycin selection, DiMSum; sequences stand for … in CUCUCU…GGAGGGAAAAGUUAUCAGGCAUGCACCUGGUAGCUAGUCUUUAAACCAAUAGAUUGCAUCGGUUUAAAAGGCAAGACCGUCAAAUUGCGGGAAAGGGGUCAACAGCCGUUCAGUACCAAGUCUCAGGGGAAACUUUGAGAUGGCCUUGCAAAGGGUAUGGUAAUAAGCUGACGGACAUGGUCCUAACCACGCAGCCAAGUCCUAAGUCAACAGAUCUUCUGUUGAUAUGGAUGCAGUUCACAGACUAAAUGUCGGUCGGGGAAGAUGUAUUCUUCUCAUAAGAUAUAGUCGGACCUCUCCUUAAUGGGAGCUAGCGGAUGAAGUGAUGCAACACUGGAGCCGCUGGGAACUAAUUUGUAUGCGAAAGUAUAUUGAUUAGUUUUGGAGUACUCGUGGUCG
Method in brief: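 Colonies from six replicate transformations of E. coli BL21(DE3) were pooled and amplicon-sequenced on an Illumina HiSeq 2500. The library placed an intron with all eight P1ex-region nucleotides randomised inside the knt kanamycin-resistance gene on pET-22b(+), and cells grew overnight at 37°C or 30°C on LB agar with or without 25 μg/mL kanamycin (plus 100 μg/mL carbenicillin, 50 μM IPTG, 0.2% rhamnose). Fitness is the DiMSum error-weighted combination of wild-type-normalised replicate fold changes, kanamycin versus none.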

Sequence	self-splicing fitness (ln) (30 °C)	self-splicing fitness (ln) (37 °C)
ACCGAGCAAUAUUACGUUUA	-3.4 ± 0.27	-2.39 ± 0.18
AGCAAGCAAUAUUACGGGCU	-2.45 ± 0.22	-2.09 ± 0.31
UUGAAGCAAUAUUACGUUCU	0.25 ± 0.084	-0.378 ± 0.1
UAGAAGCAAUAUUACGAACG	-0.0437 ± 0.11	0.576 ± 0.14
UGGAAGCAAUAUUACGCUGC	-3.48 ± 0.32	-2.15 ± 0.38
CGAGAGCAAUAUUACGCGGG	-3.05 ± 0.32	-2.16 ± 0.27
UCAUAGCAAUAUUACGGUGA	-2.39 ± 0.13	-2 ± 0.12
AGCUAGCAAUAUUACGUUGG	-3.61 ± 0.19	-2.03 ± 0.18
UUGCAGCAAUAUUACGCUAG	-2.94 ± 0.23	-2.44 ± 0.24
AUUAAGCAAUAUUACGGCUA	-0.106 ± 0.11	-0.122 ± 0.11
GUGCAGCAAUAUUACGUGUC	-2.72 ± 0.16	-2.48 ± 0.25
AGAUAGCAAUAUUACGGGCU	-1.34 ± 0.15	-1.38 ± 0.21
UCUUAGCAAUAUUACGGGGU	-3.44 ± 0.2	-2.39 ± 0.28
ACUUAGCAAUAUUACGACGA	-0.777 ± 0.089	-0.322 ± 0.088
CCACAGCAAUAUUACGAUUA	-3.92 ± 0.18	-2.11 ± 0.13
CAUUAGCAAUAUUACGCGCG	0.0331 ± 0.12	0.0206 ± 0.13
AUAUAGCAAUAUUACGGGUG	-1.81 ± 0.17	-1.3 ± 0.15
GCACAGCAAUAUUACGCUCG	-0.537 ± 0.066	0.118 ± 0.095
CGCCAGCAAUAUUACGGCUC	-0.72 ± 0.22	-0.0823 ± 0.23
AUUUAGCAAUAUUACGGCAC	-0.95 ± 0.27	–
GGCUAGCAAUAUUACGGUCA	-0.918 ± 0.1	-0.851 ± 0.085
CCAGAGCAAUAUUACGAGAG	-2.95 ± 0.21	-1.39 ± 0.23
ACCAAGCAAUAUUACGAUAU	-3.22 ± 0.11	-2.17 ± 0.095
CGACAGCAAUAUUACGCAGG	-2.05 ± 0.081	-0.906 ± 0.088
ACGUAGCAAUAUUACGAGAA	-2.37 ± 0.26	-3.02 ± 0.33

Sequence	self-splicing fitness (ln) (30 °C)	self-splicing fitness (ln) (37 °C)
GGCCAGCAAUAUUACGCAAA	-3.09 ± 0.24	-1.02 ± 0.12
UUGGAGCAAUAUUACGUCGG	-2.64 ± 0.26	-0.784 ± 0.19
AAUGAGCAAUAUUACGGGUA	–	-0.858 ± 0.23
AUGAAGCAAUAUUACGCUAU	-1.47 ± 0.091	-1.21 ± 0.12
CGGGAGCAAUAUUACGACGU	-3.47 ± 0.33	-1.16 ± 0.18
CCUCAGCAAUAUUACGUUCA	-2.61 ± 0.16	-2.68 ± 0.3
GCGAAGCAAUAUUACGAAGC	-2.71 ± 0.39	-2.49 ± 0.36
CUAGAGCAAUAUUACGUGCC	-2.84 ± 0.24	-1.41 ± 0.24
UGUCAGCAAUAUUACGAGGU	-2.83 ± 0.33	-2.81 ± 0.41
ACAAAGCAAUAUUACGUCAG	-2.7 ± 0.14	-1.47 ± 0.12
GCACAGCAAUAUUACGCCAC	–	-1.97 ± 0.2
ACUAAGCAAUAUUACGCAUU	-1.82 ± 0.11	-0.321 ± 0.12
CCUUAGCAAUAUUACGUCGU	-3.7 ± 0.25	-2.13 ± 0.22
AACUAGCAAUAUUACGUGUC	-4.26 ± 0.19	-1.25 ± 0.1
GGUAAGCAAUAUUACGCAGA	–	-1.84 ± 0.47
GCAAAGCAAUAUUACGCUUC	-4.15 ± 0.33	-2.39 ± 0.33
AUUCAGCAAUAUUACGGAGA	-1.48 ± 0.12	-0.618 ± 0.11
UAGCAGCAAUAUUACGCACG	-0.945 ± 0.13	-0.318 ± 0.14
CCACAGCAAUAUUACGCGUC	-3.13 ± 0.16	-3.14 ± 0.27
GAAUAGCAAUAUUACGGUGG	-3.06 ± 0.24	-1.08 ± 0.12
CGGGAGCAAUAUUACGCUAG	-2.57 ± 0.27	-1.27 ± 0.35
AACUAGCAAUAUUACGUUCC	-2.63 ± 0.22	-1.93 ± 0.24
GCAGAGCAAUAUUACGAAUC	-1.94 ± 0.33	-1.15 ± 0.33
GAGUAGCAAUAUUACGUUCG	-2.12 ± 0.15	-0.913 ± 0.15
